Experimental data from the DeepSol protein solubility set.

assay: soluble on expression in E. coli; label from the status in PepcDB or PDB records

Sequence | soluble on expression in E. coli
MSLTGQAEAPFIRHGYFKFADGVIVSVAEGTPSPEEIDRVEVIDGKGKWVMPGMINTHGHLGMSLLRGHSDDLPLQSWLTEKMWPFEGKMDREAVHHARQLAMAEMIKSGTTTFLEMYHLYMDDLAEAVVEQGPRAVLMRSMIGLCSESEQREKLKEAVTFATTWNGDGNGRITTMMAPHAPYTCPPSFIEMIVDEADRIDLPLHTHMAETQREVEEHRKTYGVHPLVHFEQLGFLKDRHWLLAHCVHLGEEELDILEQHPSVHVSHNPMSNLKLGSGIANVQSMLERGINICLGTDSVASNNHLDLVEEMRIAALLQKGAVLDPTAIPAETAIAMATKNGAKALRLPQVGTIEAGKRADFIMIDPQCLHLQPHEHVMSHLVYALKGADVQDVFVEGAPLMLNKELKTFDEEKLQFEANAHYQRICEKLKEGHHHHHH | not soluble
MLVSRNLAKTISNSKNAKNIHTSCRKFAPVPMTYASYSSPELDRNSPLVIVHGLFGQKQNWNSVGKALHKKLEAPVYAVDVRNHGSSPHTETMSYTEMAEDLVLFIDKVKEETKKTRVNLLGHSMGGKIVMRLAIDSKWSDRIEKLIVEDVSPKGYSRRHLEFRELIKTMRNVDLCRTRKEILKDLESAIPDLAMRQFILTNLQPSSENEGQMEWKININTIDSHVDEILGYTLPVGSFRGPTLFLHGANSGYVPDDHKPDIKCLFPQVQFDAIPDSGHWVHAEKPQLFINSVYKFLKP | not soluble
MSLAYTKKKYTPKTKEQIKEETKEIMDKVLTDITKYYRSPEDMLELANFMAKFSNYSPKNMQLIRSQFENAYACANFKAFKDAGFHVNKGETAMKVFHPYVKEYVRDPRTKLAIPLGKLTEEQKKQVKNGELKVEKQTNYYLKATAFDISQTNAKPEDLPKIFPNRQFNFEINDEGHHHHHH | not soluble
MGISEIIRSHRKKENLTQEQVANYLNISTPAVNKWENGITYPDITLLAPLARILKIDVNTLLAFNEELTEKEVNKLGRSVGEIVEKEGYQKAFEKGSDLIKQYSSCDELILRISSILRLFLVTAKVEKKDIYEDKIIAWAEIVAASRNEKTADMAKIFLSAVYRDKKEYKKAKEILDKVPDMELGSDKKIQQLLLLESSGEFDKAYGACEEVLLYNAQESLGAMVLIIRMLLKENKFSEAEEYTQRAKKLVEVFDLGEYSKYTLELSLIKEKRDEEKAVELIRNMIDNADSMNNFMRSKLYKHRKIEVTNSLDKDRYKKIVRMSIIKDKALDFVKDDPRVKSLLK | not soluble
MGKENLYVVLPSYNEEANIGKLINEWNVQFKDLEARGIKLEIIIVNDGSTDNTLAVAEAFSKHNDNVVVIDHGVNKGLGEGLNTGINYVLSQKQKGYMCLMDGDMTHEPKYIFSMLDKLQEEKLDCVIASRYRRGAKVEGLSLFRKFLSFGARVLYTIRLGIPNVRDYTCGYRLYKTSVLEKLHKVYGKRIVKETGFACMMELIVKVSKENFKIGEVPFVLKYQLKGGESKMKVGKTIKRSLLLLRVYK | soluble
MSLGVEENPKLPKSVQRHLEPDERVLFAIKKKISIEKPKWLLVTDRRIIYLDEKVLGRYDFKAIPYQKLEQVVVKLGIMSSEFIIEGEENITLKLGWMDKEEARKAINAIKDALNAIAVEPVSIDVNKGLTSETWVLKKPREFVTRTMPAYQPAQVREEKEDPLEKLKKLKELYDMGVISQEEYEEKRKKLLEEIEGHHHHHH | soluble
MGSDKIHHHHHHMTEKWLSIVGIGEDGLQGLSAIARSLVDRAKVIVGGDRHLAMLPTDDQREKIVWTSPISISVDEIIQRRGQSICVLASGDPMCYGIGVTLMRRIPVSEMTIIPAPSAFSLACARMGWSLTEVETLSLNGRPSSLLQSYIYPKARLLILSGGKDTPAIVAKILTNRGYGGSEITVLERMGGTHERIVEGTAASWSETEVAALNAIAVYCIADAGVIPLPRLPGLPDNAYHHDGQLTKREVRAITLAALAPTPGQLLWDVGAGCGSISIEWMRSNARCRAIAIEQNSSRLLYIADNAATLGTPNVQIIEGKAPHALKDLPAPDAIFIGGGVTATGLFDVCWEALRPGGRLVANVVTVEGEQTLFQWHERVGGDLTRVAIQRTEPIGKFLGWRAMAPVTQWVVVK | not soluble
SNAMKIVIAPDSYKESLSALEVATAIEQGFREIWPDADYLKLPLADGGEGTVEAMVEATAGRIVHVEVTGPLGHRVNAFYGLSGDARSAFIEMAAASGLEQVPPAQRDPLKTTSWGTGELIRHALDAGVEHIIIGIGGSATNDGGAGMVQALGARLRDAQGNDIAQGGIGLETLASIDISGLDKRLSACHIEVACDVTNPLTGKEGASAVFGPQKGATPEMIERLDTALTRYAHLIARDLHVDVLDLAGGGAAGGMGAALYAFCGAQLRRGIEIVTDALHLEACLADADLVITGEGRIDSQTIHGKVPIGVANIAKRYNKPVIGIAGSLTADVSVVHEHGLDAVFSVIYTICTLEDALKNASENVRMTARNVAATLKAGQQLR | soluble
MPLEGEYEPSPTQWVRDQVELYESSGGTKGTTLMDTGLPVIILTTLGAKSGKIRKTPLMRVEHDGKYAAVASLGGAPKHPVWYYNVLGTPAVELQDGAVRKEFTAREVTGEEKAQWWERAVAAYPPYAEYQEKTDREIPVFVLEPAG | not soluble
MAYGVMSWWDYGHYIETLGHRMPNANPFQAGIGGRRGSINETNVPGAAPFLTAQSEEEATEVLESIHPDPEKSGARYIMSDERMAVDIFMAMPEWTLDTEGYMQPYWTGDGYQYLPSKRYFDSMESRLHFLDGNGLKQYRLVYETWAYQTQEAGYKQVYNFLYGSSIPEVDSGYVKIFEYVKGAKITGTVSPNETVNINTTILTGQGRTFEYSQLEHHHHHH | not soluble
MSLNPFQKIKSAVNKRQRFFINRTLQRKLTNQGMTVISANCVGAFILHDLHQPFNSPFVNLYLSPQDFLRYLQNIDFYLTQPLTFVQTEKSYPVGKLADLEIHFMHYHSEQEANEKWQLRTSRMKLDNLFIMMTDRDGVTEKDIQLFDQLPFKNKVIFTHKPYPAFKSAYYIKGFEKQNQVGDIFEFSGWNGKKYYDQFDYVKWFNHAEGHHHHHH | soluble
MSNDRPLIFVDLDDTLFQTARKTPADIEKHVATLDISGNANGYMTNVQKSFAHWLLAHADVVPVTARSVEAYSRVKLPFTAGAICSHGGVMLDVMGRLDPDWNEQMKQTLASYQSRLHELSAATLAIGQEMGFSLRGWVVEEAQLFHYVVTKHNESDDSILTKVLAEMQARGLLDGMHIHGNGNNLAFLPEGLAKRYAVQEWLRRDLAINGERPVLGFGDSITDLGFMDECHWWATPARSQLAKMFVGAAHE | not soluble
SLRRVLMLEGCAQPTLSPNTNAATARVLDRLGISVMPANEAGCCGAVDYHLNAQEKGLARARNNIDAWWPAIEAGAEAILQTASGCGAFVKEYGQMLKNDALYADKARQVSELAVDLVELLREEPLEKLAIRGDKKLAFHCPCTLQHAQKLNGEVEKVLLRLGFTLTDVPDSHLCCGSAGTYALTHPDLARQLRDNKMNALESGKPEMIVTANIGCQTHLASAGRTSVRHWIEIVEQALEKE | soluble
MSLESLVPYNETVSTEVQFAKALEKYKFDLLHAKSNFHDQDQEQNTADVNNQHLQTQAQSSSPFDIVQKFADIAAANAYSVLPDQLSSNIDDDVYDQDFTNWDLEMKFWRLVENLNYYRVFCYENEVFGKEKEIGELYAILDWLQYHSAGEREHDQILKDQLGNEDENGNGDEEEKLLGTRSKWINTRLSIENGVYDALSGKNSNDQLIQEMDVDAPLRSGMHVDAKDAELDSKNFQAIYKLVVLGEYTDAIEFANETGNHALAVILAGAISFVEDDDQVMELANEVEGEGNIKLSASTRDKTIWVRLVYKLSKNTNLDPNERLIYSYLSGGDISENLKRASDSYEESINILVRQLLTYSELQKMHLNSFVEFTPPAPQANSMKDILNIVSNSLGSRAAEESRHPVRILMAAIMLDDLDPIISDLNDSTNDNILRILVHASLFLALLRSPQNPEQLNALITLYISKLTENNQTELVPLYLSFIPDERDARETYSLILASITDKEQRRKQLEIAKGISQSHQQSPLPLLQSQPSSHSNEDTEMVPIDDVEQDKLVNVLRRTVERVMDETEEYYNPGNEPFAIVDSGSEGHHHHHH | soluble
ASITGDALVALPEGESVRIADIVPGARPNSDNAIDLKVLDRHGNPVLADRLFHSGEHPVYAVRTVEGLRVTGTANHPLLCLVDVAGVPTLLWKLIDEIKPGDYAVIQRSAFSVDCAGFARGKPEFAPTTYTVGVPGLVRFLEAHHRDPDAKAIADELTDGRFYYAKVASVTDAGVQPVYSLRVDTADHAFITNGFVSHN | soluble
MLWQKPTAPEQAPAPARPYQGVRVKEPVKELLRRKRGHASSGAA | soluble
GMTGHIDPTKEVFAQFRANDREGPIHMLNLVRLRPRAAYPDGRETTGAEAYAAYGRDSGPVSERLGGKVVWQGQFELMLIGPQDEHWDHVFIAEYPSVAAFVEMIRDPVYREAVKHRQAAVEDSRLIRLKPLKPGKGFGEIPT | soluble
MQEKAVVLDDQMIRRALTRISHEIVERNKGVDNCVLVGIKTRGIFIAQRLAERIGQIEGKEMEVGELDITLYRDDLTLQSKNKEPLVKGSDIPVDITKKKVILVDDVLYTGRTVRAAMDALMDLGRPSQIQLAVLVDRGHRELPIRADYVGKNIPTSSEERIEVDLQETDQQDRVSIYDK | soluble
MAHHHHHHMDSPTEFSCGTQWDDDRRGEEPLLPELTLHGCGLRNLSLIVRGAQGAVYSAHDENGNRFAVKRLFTQRSDFGIRGVSEGALREATLLTLVRQEMEKLVHDTAFDVVRLQGVVEAPYKELCLILEYCSLDLSQVVVKSKRHTRSFPLVAEGPQVRCPVLSNMGVVRYLLRGILQILNNLHVNCRIIHRDVKLSNFLVRGDGSVRLSDFGSARLLHETVEEKEAAECVTSDPQDEDEVDCSDPFSHSCEGYTPAAQRTTLIYQAPECLLGERTYTTAVDVWAVGIVFAEILLQRHLFRSVNELTLISDIWRLLGTPSTKGEDPNIQGTNGVTFAAPTEPTVDVKFNDDIVSPEGRDLLKKMLEVDPKKRVTAADALRHSFLTSVDAQLSLKEAPALWREKVKECLEGGTQAVPMGAPFLALDDDEEEEEEEEDVDMNMATL | not soluble
GPGSMPVPSYWRMACRSYQFTICATSYLLRWRAPAVTQGSGALVKLPHLVRGARLQRGLLVTDAMIMKLGLVDDFIDEMKKQGTELAIYKDVLPNPTIDMVEEASVLYRKNRCDYLVAVGGGSVMDCAKLIGVRQARPRTPLPYMRGLLRVLWPLPPLIAVPTTAGTGSECTIAAVVSDPAKKDKLVVMDPFLTPSHCVLDPALTLTLPKFVTATAGMDALTHVVEAYTNVFHYRTVDKAALRAMELLAKYLPCAYKDGSNLEAREKMLHASYLAGLSFTRAGVGNVHAAAHAVGGLYNAPHGYVNAVILPHVLDMYGSAAHKSLARLAEAANIVGANDAEKAVNFISWVREMNAQMQIPTTLGAGDSRWAPQEEDIPFLVKHAVTEANPFYAVPVIFGEEEMTELFRRVM | not soluble
MNLRNGWNIEFQKNIHMYCHRLIATKGDKHYEVPCEDTPAGFVGIWLYGLELDEMTLSDLQAGLVEWAESSGCTYRIYNTRGVYLTNEPHVQADA | not soluble
